According to the DeepSol protein solubility set:

Assay: soluble on expression in E. coli; label from the status in PepcDB or PDB records
With “MGSDKIHHHHHHMLQLTQVRIWVITFKSYLRMNKNMIKGMIVFATIAEKGSMSAAAQQLNLSSSAVSQQVTKLEMDMGISLFHRNTRNLTLTEAGSLFYENCRKVISIVDSTEQKLNNLKGIPSGELKIAAPVGFGGGLLSEPFQYLLATHPQISLNLVMQDGPIDIVNDGIDLAICIGPLSDSNLIARHLADWRMLLCTSPDYLPMHHNIKHPSELAAFNRINHNYTKGELLTHHPSLECFELTGQRISVNNMQTLIQLTLDGLGYAALPEPEVLDYLDKGVLVPLLPEWSFNTYSVYSVTSARDRQPAKVKEALNALSQYFSQTDFNHADQLKGGSYQTEHIKSGKEHRLGT” the “soluble on expression in E. coli” value was “not soluble”.
With “MAHHHHHHMNEAAPFCVAPQTWQGGLARYPVSQSHVWNNNIILQPEDIDVEVFNAMSQVESQYNKNEISVEDFEMLQLTFCLFTVNQSCYDLIPNGREIRVTQANAFEFFQRVHAAYDNMKQRPALNQPTQSNHRPRLRTSGTRLRLTGQDTDSLEWIRWTAQNNPAALAFHPDEPLRWAVVPRSRDFMIRVQPEGENTFVDPDHLTLFLDMLAVLLTEIERAISVFGYYPPNCVSAAPVECADEYSIYTSHTTRATRLPFPSQRVNSRGFSALHKFPMPVTAAAAAAAAAATEQNRRTVRRASSADLENQRALCSPTHDTGGLLAPFQEWNV” the “soluble on expression in E. coli” value was “not soluble”.
With “SLLLKQAIVYPITSQKFQGDVLVIGEKIAEVKPSIQPTQDMTVIDARALHLLPGFIDVHTHLGLYDEGTGWAGNDANETSEVSTPHIRSLDGIHPFDIAFQDAVQNGITTVHVMPGSQNIIGGTTCVIKTAGTCIDHMIIQEPAGLKIAFGENPKKVHSNGTKESITRMGIMGLLRESFYEAQHYGHEADFRMLPILKALRREIPVRIHAHRADDISSALRFATEFNLDLRIEHCTEGHFIVEELSKHNLKVSVGPTLTRRSKIELKNKTWDTYHILSKNGVEVSITTDHPYTPIQYLNVCAAVAVREGLDEKTALEGITIFPARNLRLEDRIGSIETGKDADLVLWTHHPFHYLAKPVLTMIDGKIIYKKNKKN” the “soluble on expression in E. coli” value was “soluble”.
For “MSQGVEFNRLMLDMRAMQADAMSLPKVTAAPELAPGQSTFADMLGQAIGKVHETQQASTQLANAFEIGKSGVDLTDVMIASQKASVSMQAMTQVRNKLVQAYQDIMQMPV”, the “soluble on expression in E. coli” value was “not soluble”.
In the case of “MGKLYVVPTPVGNLEDMTFRAIKVLKEADLILAEDTRTSGILLKHFEIKNVMQSHHKFNEHKTVESVVNRIKAGETIALISDAGTPGISDPGFLVVRECVRNGIEVQCLPGA”, the “soluble on expression in E. coli” value is reported as “not soluble”.
With “SLPLPLVVAVLDSEDEKEGRTCAIVAFGFRYIHPASGAQVDVPEGYVTDFASIPAPVRGLFPPFGRHAKAAVLHDWLYLIGEPGQRAFADRIFLDAMDDLRVSLVRRSIMHRAVRLAGGGAYAKEASTWARAFGNWRTGDRHTPPFTAESRYQAHWPVPPRPDFRP” the “soluble on expression in E. coli” value was “not soluble”.
With “MAEASSLVGKLETEVEIKASAKKFHHMFTERPHHVSKATPDKIHGYGKLTVGKNKIEAVDPEKNLITFKVLEGDLMNEYKSFAFTLQVTPKQGESGSIAHWHLEYEKISEEVAHPETLLQFCVEISKEIDEHLLAEE” the “soluble on expression in E. coli” value was “soluble”.
For “MNRYRKILVAGIIDQEEQPALKRALDIANRTTKPSEITLFCTTYDFSYEMTSMLSADERMAMRNGVVSQKVKMLNDVIADYSKSDHVTITIKVVWHNRPYEAIINEIFDDSYNILIKATRQHAKLETVFFTPTDWHLLRKSPIPVLLVKERPWPENGNILASVHVGSENPAHLQLNDKMVDEAIYFAEVLNSTPHLVNAYPSTPPSIHVELPEFNAVQYKDAIRGHHLTQMKALRQKYGIPEEQTHVYEGPTEEVISEVEDELTAGLVILGTTGRTGLSAIFIGNTAENTLDLLNCDILALKPDGYISPLDPNHIS”, the “soluble on expression in E. coli” value was “not soluble”.
For “MSLNETKQFIKRHLFSARWLVRNLQQRYSTIERIAEFLAVNQYEFFTQPDGQLKPLTMKTIADALELHESTIARTVSNKYINSPKGIFSLRSFFTTKYTSEEGEDLSAKTVKEAILEIISGENKLRPFSDEKISEFLKSKGITCARRTVAKYRQALDLGNTQQRKKFHQSEGHHHHHH”, the “soluble on expression in E. coli” value was “soluble”.
With “MGSIEEVLLEERLIGYLDPGAEKVLARINRPSKIVSTSSCTGRITLIEGEAHWLRNGARVAYKTHHPISRSEVERVLRRGFTNLWLKVTGPILHLRVEGWQCAKSLLEAARRNGFKHSGVISIAEDSRLVIEIMSSQSMSVPLVMEGARIVGDDALDMLIEKANTILVESRIGLDTFSREVEELVECFAAALEHHHHHH” the “soluble on expression in E. coli” value was “soluble”.
With “SSESESGGDFHEMREPRIEKVVVHMGIGHGGRDLANAEDILGEITGQMPVRTKAKRTVGEFDIREGDPIGAKVTLRDEMAEEFLQTALPLAELATSQFDDTGNFSFGVEEHTEFPSQEYDPSIGIYGLDVTVNLVRPGYRVAKRDKASRSIPTKHRLNPADAVAFIESTYDVEVSE” the “soluble on expression in E. coli” value was “soluble”.
With “MIVKTEEELQALKEIGYICAKVRNTMQAATKPGITTKELDNIAKELFEEYGAISAPIHDENFPGQTCISVNEEVAHGIPSKRVIREGDLVNIDVSALKNGYYADTGISFVVGESDDPMKQKVCDVATMAFENAIAKVKPGTKLSNIGKAVHNTARQNDLKVIKNLTGHGVGLSLHEAPAHVLNYFDPKDKTLLTEGMVLAIEPFISSNASFVTEGKNEWAFETSDKSFVAQIEHTVIVTKDGPILTTKIEEE” the “soluble on expression in E. coli” value was “soluble”.
In the case of “MHTKGPTPQQHDGSALRIGIVHARWNETIIEPLLAGTKAKLLACGVKESNIVVQSVPGSWELPIAVQRLYSASQLQTPSSGPSLSAGDLLGSSTTDLTALPTTTASSTGPFDALIAIGVLIKGETMHFEYIADSVSHGLMRVQLDTGVPVIFGVLTVLTDDQAKARAGVIEGSHNHGEDWGLAAVEMGVRRRDWAAGKTE”, the “soluble on expression in E. coli” value is reported as “soluble”.
For “MPCQSKKNPSEVHISSGRDLVQRTFVFSNTTGKDFLLKLITSSEAISFPTNIFRFPPSSHRVIQFRVNSSKLSHWDKLNMSIKGYVMPIYAKNLKQFIDQKSTAGTQDQEAFSLAVKFTDQYSAPQVLINLPGSATCIESMDHPVGIEELDTITAVNIEKDALTAAPIGNLMGFVEEYKRRNTNKGGCWLSNYICGGEEEQKEKKSIRGASRRSSRSSKKSAKSAGSSSCRSQSRKKNKKSQVNVCLEATPCGGSTIQA”, the “soluble on expression in E. coli” value was “not soluble”.
With “MGSDKIHHHHHHPNDPIIYKKEGGAFLWLGDTAWELFHVLDKEEIVHYLDNRQEKGFTVIQAVILSELDGLDKPNAYGYLPLVDKDPTQITEGYFELVDFVIREAGKRGMYIGLLPTWANNVVEKDGNPALFNPDNAYTYGKILGTRYKNEAVIWILGGDRNVVTDKEFEIWQSMAKGIQEGNGGTQLMSYHPTGEISSHYWFHNESWLSFNILQSGHYRRMDPVYRFSGMYAQLNPIKPFVNAEPSYEDIPVLFWEYFDYAKFGKKKEDIIGDNGLIKDTTYFTDGIYDDYDIRMQAYWTYFSGAAGYTYGNNAIWQMYKPGGKYHVPCLTFWDGALDRPGAECMRYVKSLFTMYPLDRFRPDLSVLFGINYNDASYITPVLAKDKTFILVYLSQGQDVRIQMSKLRSLGKAYWFNPRNGARTLIGPVENKGIRTFNAPGEAGERGNDWILILEADDR” the “soluble on expression in E. coli” value was “not soluble”.
For “MGSDKIHHHHHHMIGYGKTVRDIRTSKGIHQKDLYDNIISKSFAIEFEKGKHDITLSLFEKILKRMNMDLDEFFYIHRELSKSAEKNYLCMNQERGNIYDLESLELLYSELSKHDGELVEVWKAFVRSRIKMVEHLLKYHEFTVDVITAKDKCTIQKYLFSIDTWTLEELKICANSIYFFEEDLQIQFLNQVIKAIQPYKNYDRARRVLCTLLINTIEVFISRSQLSSASKLLILLDSLCIYNESAFYRNISNFLKGLLKMQSNQIKEGYAQAKKAIQLMNDLHFEEIAYLYEILLDQFIQLEGIDILNY”, the “soluble on expression in E. coli” value was “not soluble”.
In the case of “MLPCLNEEESLPAVLAAIPAGYRALVVDNNSTDDTATVAARHGAQVVVEPRPGYGSAVHAGVLAATTPIVAVIDADGSMDAGDLPKLVAELDKGADLVTGRRRPVAGLHWPWVARVGTVVMSWRLRTRHRLPVHDIAPMRVARREALLDLGVVDRRSGYPLELLVRAAAAGWRVVELDVSYGPRTGGKSKVSGSLRGSIIAILDFWKVISLEHHHHHH”, the “soluble on expression in E. coli” value is reported as “not soluble”.
For “SMPDEVPLDEQCERLPYDASKWEFARERLKLGKSLGRGAFGKVVQASAFGIKKSPTCRTVAVKMLKEGATASEYKALMTELKILTHIGHHLNVVNLLGACTKQGGPLMVIVEYCKYGNLSNYLKSKRDLFFLNKDAALHMEPKKEKMEPGLEQGKKPRLDSVTSSESFASSGFQEDKSLSDVEEEEDSDGFYKEPITMEDLISYSFQVARGMEFLSSRKCIHRDLAARNILLSENNVVKICDFGLARDIYKNPDYVRKGDTRLPLKWMAPESIFDKIYSTKSDVWSYGVLLWEIFSLGGSPYPGVQMDEDFCSRLREGMRMRAPEYSTPEIYQIMLDCWHRDPKERPRFAELVEKLGDLL”, the “soluble on expression in E. coli” value was “soluble”.
For “SFRFMRDVEPEDPMFLMDPFAIHRQHMSRMLSGGFGYSPFLSITDGNMPGTRPASRRMQQAGAVSPFGMLGMSGGFMDMFGMMNDMIGNMEHMTAGGNCQTFSSSTVISYSNTGDGAPKVYQETSEMRSAPGGIRETRRTVRDSDSGLEQMSIGHHIRDRAHILQRSRNHRTGDQEERQDYINLDESEAAAFDDEWRRETSRFRQQRPLEFRRLESSGAGGRRAEGPPRLAIQGPEDSPSRQSRRYDW”, the “soluble on expression in E. coli” value was “soluble”.
With “AIASKKKGLSFDDKRTRMLEIFTESKTFFTLKELEKVAPKQKGIVLPSVKEVLQSLVDDDVVSSDKCGTQTVYWCLPSQAVQKKRCRIASLTEHLQAKYALRQQLFQRRDELRNSHQDTEERTHFIEQINELESKLKLIQEQLDIYKESDPEVLAEIRNVSHIAWEATNRWTDNIFSIRSWVTSKFGLPSSEFDKNFGLSEDFDYI” the “soluble on expression in E. coli” value was “soluble”.
In the case of “MTSLYLASGSPRRQELLAQLGVTFERIVTGIEEQRQPQESAQQYVVRLAREKARAGVAQTAKDLPVLGADTIVILNGEVLEKPRDAEHAAQMLRKLSGQTHQVMTAVALADSQHILDCLVVTDVTFRTLTDEDIAGYVASDEPLDKAGAYGIQGLGGCFVRKINGSYHAVVGLPLVETYELLSNFNALREKRDKHDG”, the “soluble on expression in E. coli” value is reported as “soluble”.
With “MGSDKIHHHHHHMRNLISETKSLYKLIDFKDVQIFGDAANYTCILFLKIYKNDVFSYIFPKSTDTFTIQSVSNVDTFQEYKLPLPKPDHPWILSENKVSELIRKLSRKGIPLEIISKNIFQSLTTSADGIYFVQVESETRDTAKIRNIKNNLEFAVEKTILRKLLKGKDIRRCSVDWKGSYVVYPYLVKDDKASLITLSEIKDRYPLAYEYFKHYELQLKTREDNKLKDDENWHQYIYRKNLEKFEQKKIVTQVLASKNTFAIDLNGEFYFVGGDNAGGYGIVLNDNNQNMYYFVLALLNSNVLEFYLKNISTPFRGGYFSYGKRFIDKLPLLIPKDSRFDSVSSLSKEQMNISKKMRNFPNTDERDLLEREYDKRCQELNQMIYEIYGLNKLEITLLDDRLCQ” the “soluble on expression in E. coli” value was “not soluble”.
In the case of “MGSDKIHHHHHHMSIRIGNAPCSWGVEFADDPRNPTWRSVLKDCAEAGYKGIELGPVGFMPEDPVELGEALAEHDLDLIGGVVFRAYHDPAAWEDVVDATHRTARALRAHGAQHLVLIDSISPRRAPTAGRAAEAEQMDKAEWTAYRNRIAESARIGAEEYGLTVGIHAHAAGFMDFEPELERLLSEVDESLLKICFDTGHHSYAGFDPVAFMKRHVGRISYMHFKDIDPKVKAEVIANRTGFYEACGQGIFCNLGLGDVDFPAVRQVLLEAGFAGWCTVEQDCDPTLDPDPVGDALKNREYLETIGFN”, the “soluble on expression in E. coli” value is reported as “not soluble”.
